# Source: PMC12263834, “Structural basis of Fanconi anemia pathway activation by FANCM”
# T1: FANCM-CTD;FAAP24 (human?;human?, UniProt Q8IYD8;Q9BTP7 1799-2048;1-215, |)
# T1 sequence 1: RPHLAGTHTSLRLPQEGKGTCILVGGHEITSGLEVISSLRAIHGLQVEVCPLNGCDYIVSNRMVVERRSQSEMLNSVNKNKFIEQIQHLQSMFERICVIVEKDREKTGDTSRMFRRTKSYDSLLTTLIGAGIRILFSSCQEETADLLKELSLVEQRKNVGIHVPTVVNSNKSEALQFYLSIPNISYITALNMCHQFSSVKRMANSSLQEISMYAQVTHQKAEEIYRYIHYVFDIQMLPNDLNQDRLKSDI
# T1 sequence 2: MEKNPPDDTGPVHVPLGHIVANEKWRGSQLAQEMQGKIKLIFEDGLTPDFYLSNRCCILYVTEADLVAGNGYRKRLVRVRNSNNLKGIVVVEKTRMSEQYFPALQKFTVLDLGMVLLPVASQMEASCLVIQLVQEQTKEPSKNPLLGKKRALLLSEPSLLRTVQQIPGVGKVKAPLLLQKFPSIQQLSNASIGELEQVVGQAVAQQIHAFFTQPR
# T2: FANCM translocase domain (8HIS-FANCM 73-644) (human, UniProt Q8IYD8 73-644)
# T2 sequence: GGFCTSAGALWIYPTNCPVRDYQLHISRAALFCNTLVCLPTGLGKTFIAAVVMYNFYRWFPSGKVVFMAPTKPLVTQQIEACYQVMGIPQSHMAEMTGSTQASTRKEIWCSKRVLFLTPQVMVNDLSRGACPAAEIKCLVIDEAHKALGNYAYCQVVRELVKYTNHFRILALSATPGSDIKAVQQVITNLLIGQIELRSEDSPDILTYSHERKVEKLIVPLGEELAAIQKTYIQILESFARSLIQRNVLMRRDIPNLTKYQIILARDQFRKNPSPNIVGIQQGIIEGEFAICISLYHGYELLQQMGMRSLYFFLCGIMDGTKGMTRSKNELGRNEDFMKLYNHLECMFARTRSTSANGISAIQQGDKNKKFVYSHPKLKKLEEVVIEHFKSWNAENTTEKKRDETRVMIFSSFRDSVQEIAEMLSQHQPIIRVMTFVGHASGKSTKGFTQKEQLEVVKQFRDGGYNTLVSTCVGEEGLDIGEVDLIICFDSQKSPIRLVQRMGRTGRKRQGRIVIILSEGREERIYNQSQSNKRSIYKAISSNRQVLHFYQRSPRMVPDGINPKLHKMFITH
# Experiments:
# [1] = molecular target: FANCA (FA core complex component, in cells) [human (endogenous in HCT116 or HEK293 cells)]; test: co-immunoprecipitation (quantified Western blot); settings: cell-based; n = 3 independent co-immunoprecipitation experiments; parent: 100; read off a plot
# [2] = molecular target: FANCE (FA core complex component, in cells) [human (endogenous in HCT116 or HEK293 cells)]; test: co-immunoprecipitation (quantified Western blot); settings: cell-based; n = 3 independent co-immunoprecipitation experiments; parent: 100; read off a plot
# [3] = molecular target: T1, FANCM-CTD;FAAP24; test: crystal structure (2.4 A); Mg2+ site in FAAP24; duplex contacted, splayed arms disordered; Fluorescence anisotropy: 25 mM Tris-HCl pH 8, 20 mM NaCl, 2 mM MnCl2, 0.1 mg/ml BSA, temperature not stated; crystals N-terminal domain: 0.2 M NaCl, 0.1 M HEPES pH 7.0, 32.5% PEG 400, room temperature; CTD: 25% PEG3350, 0.1 M diammonium hydrogen phosphate; settings: protein: recombinant;recombinant; tags: GST (PreScission cleaved);HIS; copies: 1;1; 17 bp duplex with splayed arms: 3' TTTT on SA1 and 5' TTTT on SA2 at the same end
# [4] = molecular target: T2, FANCM translocase domain (8HIS-FANCM …); test: crystal structure (2.2 A); 5 mM MgCl2 in protein buffer; Fluorescence anisotropy: 25 mM Tris-HCl pH 8, 20 mM NaCl, 2 mM MnCl2, 0.1 mg/ml BSA, temperature not stated; crystals N-terminal domain: 0.2 M NaCl, 0.1 M HEPES pH 7.0, 32.5% PEG 400, room temperature; CTD: 25% PEG3350, 0.1 M diammonium hydrogen phosphate; settings: protein: recombinant; tags: 8xHis N-terminal; hairpin, 14 bp stem, TTAG loop, 11 nt 3' flap
Molecule,percent of parent (% of wild-type FANCM) [1],percent of parent (% of wild-type FANCM) [2],other results
"Flag-FANCM-wildtype (expressed in cells) mutant P999L [human] / FANCA (FA core complex component, in cells) [human (endogenous in HCT116 or HEK293 cells)] chain 1 P999L",14,,
SA1/SA2 splayed duplex (dsDNA) DNA 1: TACGCATCATCGCTCGGTTTT DNA 2: TTTTCCGAGCGATGATGCGTA,,,binding result [3]: binds
GGTATGAGCACTGCTTAGGCAGTGCTCATACCGCATGGAGCTG (structured_DNA) [Hairpin15 (3' flap hairpin)],,,binding result [4]: binds

# Further lines, with some results ahead:
percent of parent (% of wild-type FANCM) [1],percent of parent (% of wild-type FANCM) [2],Molecule,other results
40,,"Flag-FANCM-wildtype (expressed in cells) mutant V990A [human] / FANCA (FA core complex component, in cells) [human (endogenous in HCT116 or HEK293 cells)] chain 1 V990A",
,27,"Flag-FANCM-wildtype (expressed in cells) mutant V990A [human] / FANCE (FA core complex component, in cells) [human (endogenous in HCT116 or HEK293 cells)] chain 1 V990A",
,10,"Flag-FANCM-wildtype (expressed in cells) mutant P999L [human] / FANCE (FA core complex component, in cells) [human (endogenous in HCT116 or HEK293 cells)] chain 1 P999L",
